Measured values from patent EP2379590B1 (Development Center for Biotechnology, dated 2018).

Tests used:
Assay in all cases: cell-based or functional assay
[1] = target: glycoprotein D of HSV-2 00040 (clinical strain), on infectious virus (HSV-2 (clinical strain 00040))
[2] = target: glycoprotein D of HSV-1 00410 (clinical strain), on infectious virus (HSV-1 (clinical strain 00410))
[3] = target: glycoprotein D of HSV-2 186, on infectious virus (HSV-2 (strain 186))
[4] = target: glycoprotein D of HSV-1 KOS, on infectious virus (HSV-1 (KOS strain), UniProt A1Z0Q5 26-394)
glycoprotein D of HSV-1 KOS, on infectious virus, sequence (A1Z0Q5 26-394 limits assumed): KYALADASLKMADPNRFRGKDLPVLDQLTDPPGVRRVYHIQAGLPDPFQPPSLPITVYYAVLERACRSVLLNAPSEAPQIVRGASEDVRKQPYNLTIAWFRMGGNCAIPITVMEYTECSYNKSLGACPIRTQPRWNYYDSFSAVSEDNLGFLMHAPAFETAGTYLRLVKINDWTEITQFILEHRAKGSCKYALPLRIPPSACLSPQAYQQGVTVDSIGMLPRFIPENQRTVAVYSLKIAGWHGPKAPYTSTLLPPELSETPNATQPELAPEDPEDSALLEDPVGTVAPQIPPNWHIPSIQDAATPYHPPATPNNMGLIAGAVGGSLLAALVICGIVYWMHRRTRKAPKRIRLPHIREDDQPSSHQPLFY

B1: scFv E425 (scFv, not shown: small tags and cut ends)
scFv: QVQLQQSGAGVKKPGSSVRVSCSASGGTLRTYALSWVRQVPGQGFEWMGRIIPMFGKTDYAQKFQGRLSITADKSMDTGFMELTSLTSEDTAVYYCARDLTTLTSYNWLDIWGQGTLVTVSSGGGGSGGGGSGGGGSETTLTQSPGTLSLSPGERATLSCRASQSVSSNYLAWYQKKPGQAPRLLIYGASSRATGIPDRFSGSGSGTDFTLTINRLEPEDFAVYYCQQYGRSPTFGQGTKVEIKR
Question: What does the source list for B1?
Answer: IC50, plaque reduction assay in Vero cells (HSV-2 00040) [1]: 1.16 nM; IC50, plaque reduction assay in Vero cells (HSV-1 00410) [2]: 1.8 nM; IC50, plaque reduction assay in Vero cells (HSV-2 186) [3]: 4.5 nM; IC50, plaque reduction assay in Vero cells (HSV-1 KOS) [4]: 2.2 nM
